The supplement of paper PMC9732359
± gives the uncertainty stated by the source.

assay: protein stability index of a GFP-peptide fusion (yeast GPS) (PSI 1-4); higher = more stable; sorted into four equal gates, so the index is relative within each strain; conditions: doa10∆
Method in brief: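 Plasmids in a pooled yeast library fused tiled 17-residue yeast protein peptides downstream of GFP and also expressed Cherry. Mid-log cultures grown without leucine were sorted into four equal gates by GFP/Cherry fluorescence ratio. Each gate's plasmids were PCR-amplified and Illumina-sequenced, and reads were matched to strains by barcodes. The protein stability index is derived by multiplying each gate's read frequency by its gate number and summing the results.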

Row | Sequence | protein stability index
1 | PRVQGFYVPQARNVTFD [GRR1] | 2.99 ± 0.064
2 | PRYTYHTIFSDVCKTRF [YML031W/NDC1] | 2.77 ± 0.055
3 | PSAVAGFINQKNLKPQE [YIL149C/MLP2] | 3.16 ± 0.099
4 | PSINLDPDNTSFSDENS [ESC2] | 2.83 ± 0.072
5 | PSKVSKIDSHVVLSFSG [PRE6] | 1.71 ± 0.062
6 | PSLEVASEYIETLGLKY [FAS1] | 3.02 ± 0.069
7 | PSQTLFSISYKPPTQKT [SRP21] | 2.23 ± 0.036
8 | PSSEVYSPIEKESPWKI [RRP6] | 2.87 ± 0.15
9 | PSTSSNMDVGNPRKRKA [GAL11] | 2.65 ± 0.18
10 | PSTTDDENGDKNDNGGK [SWI3] | 3.09 ± 0.089
11 | PSVAAEYVYFFNNTSVI [RPC40] | 2.09 ± 0.056
12 | PSYSPTSPSYSPTSPSY [RPO21] | 2.65 ± 0.03
13 | PTETYSDVGGLDKQIEE [RPT5] | 3.36 ± 0.21
14 | PTQTKGNDAKPAKVEDV [YLR335W/NUP2] | 3.21 ± 0.057
15 | PTSPSYSPTSPSYSPTS [RPO21] | 2.59 ± 0.044
16 | PTSVKLLKTTVPIVSKK [POP3] | 3.21 ± 0.1
17 | PTTMVTNQKDTNDHVDK [ISW2] | 1.96 ± 0.062
18 | PTTVSYIFCISRTIGMV [SCL1] | 1.99 ± 0.039
19 | PTVKYNRKVRAGRGFTL [RPL13A] | 2.62 ± 0.059
20 | PVLNLDKLWTLIPEDKR [RPL28] | 1.54 ± 0.056
21 | PVLSTIAFLVGLVNPKT [SWI3] | 2.98 ± 0.085
22 | PVNTGVLHVSAKGKSGV [RRP40] | 2.48 ± 0.1
23 | PVPSDSTRKKGGRRGRR [RPS14B] | 3.22 ± 0.092
24 | PVRTIVPISTSQTNNSF [SIR4] | 2.04 ± 0.04
25 | PWVVYLQILAMLLLNIF [YMR129W/POM152] | 1.19 ± 0.1
26 | PYEMYKYVHVSEVGNCS [FAS2] | 2.23 ± 0.056

Row | Sequence | protein stability index
27 | QAIITERLVEFSNVNEL [YIL149C/MLP2] | 2.72 ± 0.19
28 | QAIKEASYVNIPVIALT [RPS0A] | 2.07 ± 0.068
29 | QAISYLHKLQRMRLRAL [GRR1] | 1.77 ± 0.057
30 | QANQVKRHSYAQSSHIR [RPS1A] | 2.528 ± 0.023
31 | QANTEPENITKREASRG [MCD1] | 3.01 ± 0.079
32 | QAPKQRRRTYRAHGRIN [RPL17A] | 2.06 ± 0.29
33 | QARIILNHILEKSTQLQ [YGR119C/NUP57] | 2.83 ± 0.12
34 | QARTATLKYICAECSSK [RPC10] | 2.72 ± 0.12
35 | QCCEFMTMLTPNYLHLV [YML103C/NUP188] | 2.23 ± 0.05
36 | QDSIFQRIIADLSADKP [SRB8] | 2.63 ± 0.046
37 | QDVAAKCKEVGITAVHV [RPS14B] | 2.44 ± 0.059
38 | QDVDDAHAIDQMTWRQW [POP8] | 2.1 ± 0.058
39 | QEAFKIYQHLASHNEKD [SRP72] | 1.89 ± 0.082
40 | QEEFVQFLQLDNDGFSF [ECM29] | 1.9 ± 0.087
41 | QEPFLNSSNYAELFNND [PRP8] | 2.61 ± 0.051
42 | QEQLKNVKNDVSFNDSQ [YIL149C/MLP2] | 3.27 ± 0.061
43 | QERQRQIQKNGPEITPE [PRP8] | 2.88 ± 0.11
44 | QESFVPNSERSGTPTLK [YOR098C/NUP1] | 3.03 ± 0.16
45 | QEYLNPVIDTQIANEFN [YDL116W/NUP84] | 2.85 ± 0.053
46 | QFKTTIKDTANDNDITV [UBP6] | 2.45 ± 0.11
47 | QFLRLIFVSILSDRANK [ARP9] | 1.64 ± 0.065
48 | QFTGFLLHEMTQTYMQM [GRR1] | 1.92 ± 0.054
49 | QGDEALSVDDIRGAVGN [RTT102] | 3.35 ± 0.096
50 | QGEVGAVFIVPKILIRE [SWP82] | 2.03 ± 0.14
51 | QGFSKDTFELIKTFLVD [YDL116W/NUP84] | 3.02 ± 0.079
52 | QGGFYKQQDAEELFTQL [UBP6] | 3.38 ± 0.078

Row | Sequence | protein stability index
53 | QGKSKLIIIAANTPVLR [RPL30] | 2.91 ± 0.093
54 | QGLKLAKKHKLNAITLD [SMC3] | 2.4 ± 0.21
55 | QGPRSYFLDVKCPGCLN [RPS27A] | 2.93 ± 0.097
56 | QGRDTSKLPDPERWLPL [SRP72] | 3.33 ± 0.16
57 | QGSMSERPPYILNSYGV [SIR2] | 2.73 ± 0.072
58 | QGTNSVPNSIGNIFSNI [SNF5] | 2.91 ± 0.068
59 | QHQRIVAFVCSPISDSR [RPN10] | 1.92 ± 0.097
60 | QIENLNEVCLEKENRFE [SMC4] | 3.27 ± 0.17
61 | QILTVDPKTSLRIVKPT [RPC82] | 3.07 ± 0.21
62 | QINKAQILENYNALFQQ [YJL039C/NUP192] | 2.81 ± 0.068
63 | QIPLHRAASVGSLKLIE [NAS6] | 2.04 ± 0.078
64 | QIPVYDTFDGSDLRVLS [FAS1] | 2.7 ± 0.081
65 | QIQKNGPEITPEEATTI [PRP8] | 2.85 ± 0.26
66 | QITLTFISELCSIEPIA [YML103C/NUP188] | 1.27 ± 0.035
67 | QIVSYCSNNKNSIKNVP [SSN2] | 1.65 ± 0.083
68 | QIYTQRAYMRPLGVILT [SCL1] | 1.8 ± 0.053
69 | QKEQNVNNRDSEKGFSK [YCS4] | 2.91 ± 0.071
70 | QKKATMSAEEALVYSYI [RPC34] | 1.43 ± 0.14
71 | QKSVSLLSSESNIPTLI [YDL116W/NUP84] | 2.73 ± 0.056
72 | QLASQLVDLKKELAELK [RPL35A] | 3.37 ± 0.26
73 | QLAVKIINKVLDYQETY [YJL039C/NUP192] | 1.94 ± 0.11
74 | QLCQITCQILESGEDEA [RRP46] | 2.25 ± 0.19
75 | QLDDEDFDLLNKTLTFE [FAS1] | 3.38 ± 0.12
76 | QLNSRAVAVVVDPIQSV [RPN11] | 1.27 ± 0.067
77 | QLSKAAKAAAALAGGKK [RPS25A] | 1.7 ± 0.057
78 | QLSLDASKTNLRLTDVT [GAL11] | 2.85 ± 0.058

Row | Sequence | protein stability index
79 | QLTEFWTELCQREFKEI [NNF1] | 2.98 ± 0.21
80 | QLVIQQGTGKKTASLGN [ISW2] | 3.2 ± 0.24
81 | QMMARMAQTATQQQPGA [SRP54] | 2.34 ± 0.059
82 | QMMQQAQQKLKQNPGLM [SRP54] | 2.83 ± 0.08
83 | QNDFLFSVGESLSVVAG [ECM29] | 2.61 ± 0.065
84 | QNEMIDAIAVTKGHGFE [RPL3] | 3.08 ± 0.11
85 | QNENLPSDKSDSMVDKE [SSN2] | 3.07 ± 0.13
86 | QNISPVYSVDPLEKITD [PRP8] | 2.94 ± 0.083
87 | QNLRKELLIYKKSQCKK [YIL149C/MLP2] | 1.75 ± 0.078
88 | QNPENLLSEKILQYFEK [SIR3] | 2.83 ± 0.079
89 | QPAKEKGVTEKDAVDYS [RRP6] | 3.2 ± 0.21
90 | QPKPLFSFGKSDAAKEP [YOR098C/NUP1] | 2.52 ± 0.07
91 | QPSDVKPTSHKQLQQPK [SIR4] | 2.98 ± 0.096
92 | QPWQMDTNNEADLMALE [SNF12] | 2.59 ± 0.068
93 | QQAQARLQQGRRLPMTM [SNF2] | 3.1 ± 0.065
94 | QQNPKFLQSQRQQQQRS [SWI1] | 2.47 ± 0.06
95 | QQNYSKVLLPSINISCV [SWI1] | 1.85 ± 0.067
96 | QQPTASDNIASLQYINI [SMD1] | 3.27 ± 0.09
97 | QQQDQPEQSEQPEQHQD [RPN10] | 3 ± 0.052
98 | QQQGQIPQSQQVPQVRS [SNF5] | 2.37 ± 0.036
99 | QQQMANNNGNPGTTSTG [GAL11] | 3.13 ± 0.11
100 | QQQNASSKLYQMQQQQQ [GAL11] | 1.76 ± 0.091
101 | QQQQQNQQQQNQQPQQQ [SWI1] | 2.99 ± 0.041
102 | QQQQQQQNPKFLQSQRQ [SWI1] | 2.84 ± 0.048
103 | QQQQTSPPPQTHQSPPP [SNF5] | 2.883 ± 0.018
104 | QQRGITYLNEVLEKDAA [YGR119C/NUP57] | 3.16 ± 0.093
